Data taken from patent US20060084789A1, “Immunotherapeutic and immunoprphylactic reagents” (priority 2002, published 2006).

B1: Lol p 5: Rye grass pollen allergen purified from RGP extract by SDS-PAGE or affinity chromatography (mAb FMC A7) (protein)
chain: ADAGYTPAAAATPATPAATPAAAGGKATTDEQKLLEDVNAGFKAAVAAAANAPPADKFKIFEAAFSESSKGLLATSAAKAPGLIPKLDTAYDVAYKAAEGATPEAKYDAFVTALTEALRVIAGALEVHAVKPATEEVPAAKIPTGELQIVDKIDAAFKIAATAANAAPTNDKFTVFESAFNKALNECTGGAYETYKFIPSLEAAVKQAYAATVAAAPEVKYAVFEAALTKAITAMTQAQKAGKPAAAAATGAATVATGAATAAAGAATAAAGGYKA
B2: Lol p 1: Rye grass pollen allergen purified from crude RGP extracts by SDS-PAGE (protein)
chain: IAKVPPGPNITAEYGDKWLDAKSTWYGKPTGAGPKDNCGACGYKDVDKAPFNGMTGCGNTPIFKDGRGCGSCFEIKCTKPESCSGEAVTVTITDDNEEPIAPYHFDLSGHAFGSMAKKGEEQKLRASAGELELQFRRVKCKYPDGTKPTFHVEKASNPNYLAILVKYVDGDGDVVAVDIKEKGKDKWIELKESWGAVWRIDTPDKLTGPFTVRYTTEGGTKSEVEDVIPEGWKADTSYSAK
modifications: Lolium perenne
notes: Rye grass pollen allergen purified from crude RGP extracts by SDS-PAGE

Legend:
RGP-specific TCL = assay: TCL proliferation assay (3H-thymidine incorporation, stimulation index); assay type: cell-based, human; settings: for TCL that responded, response to allergen or peptide: allergen responsiveness considered as response to allergen or peptide; for TCL tested that responded to purified allergen: ten of fourteen TCL (Lol p 1), nine of fifteen TCL (Lol p 5), positive if SI ≥2.5; for Proliferative response, stimulation index: peptides 10 μg/ml
Method: Generation of Short-Term RGP-Specific TCL
PBMC were cultured in 24-well plates (Costar, Mass., USA) at 2.5×10^6 cells/well with RGP extract at a concentration of 25 or 50 μg/ml in RPMI 1640 medium (Gibco BRL, NY, USA) supplemented with 2 mM GlutaMAX I (Gibco BRL), 0.05 mg/ml gentamicin (David Bull Laboratories, Mulgrave, Victoria, Australia) and 5% heat-inactivated hunan AB^+ serum (Sigma, Mo., USA) for 7 days at 37° C. in a 5% CO2 humidified incubator. At day 7, cells were washed once and restimulated in 24-well plates at 5×10^5 cells/well width 25 or 50 μg/ml of RGP extract in the presence of 5×10^5 cells/well irradiated (3000 rads) autologous PBMC as a source of antigen presenting cells (APC). At day 2 following restimulation, 10 U/ml of Lymphocult T-LF (LC; Biotest, Germany) was added as a source of IL-2 and at day 4, 1 ml of culture medium was removed and replaced with fresh medium and 10 U/ml of LC. […] In all experiments T cells were rested for 6 to 7 days after the last addition of antigen and APC before testing.
T cells (5×10^4/well) were cultured in 96-well U bottom plates with either RGP extract at concentrations ranging from 25 to 200 μg/ml, purified Lol p 1 (0.12 to 2 μg/ml) or Lol p 5 (0.1 to 10 μg/ml), or Lol p 1 or Lol p 5 peptides (10 μg/ml), or medium alone (to determine background levels of proliferation), in the presence of washed autologous irradiated (3000 rads) PBMC (5×10^4/well). […] Cultures were incubated for 3 days, pulsed for the last 16 hours with ^3H-thymidine (1 μCi/well) and harvested onto glass fibre filters. ^3H-thymidine incorporation was measured by liquid scintillation spectroscopy and the mean counts per minute (cpm) for triplicate cultures was determined. Responses were considered positive if the stimulation index (SI, cpm of antigen-stimulated T cells divided by cpm of unstimulated T cells) was ≧2.5. Where several concentrations of allergen were tested (i.e., RGP, Lol p 1 and Lol p 5), values corresponding to the highest proliferation are shown.

[1] = tested on: oligoclonal house dust mite (HDM)- or low ammoniated latex (LAL)-reactive CD44^+ T cells; assay: Mitogenicity check with irrelevant-antigen T cells and irradiated autologous PBMC; assay type: cell-based; settings: culture with HDM- or LAL-reactive T cells and irradiated autologous PBMC; data not shown
Source text: Mitogenicity of RGP, Lol p 1, Lol p 5 and peptides was excluded by culturing with oligoclonal house dust mite (HDM)- or low ammoniated latex (LAL)-reactive CD44^+ T cells in the presence of irradiated autologous PBMC, and toxicity was excluded by co-culture of antigens with HDM- or LAL-reactive T cells in the presence of IL-2 (data not shown).

| Molecule | TCL that responded, response to allergen or peptide (RGP-specific TCL) | TCL tested that responded to purified allergen (RGP-specific TCL) | Mitogenicity [1] | Proliferative response, stimulation index (RGP-specific TCL; Subject 1 TCL, Lol p 1 series (Table 3), RGP and Lol p 1 maximal response) | Proliferative response, stimulation index (RGP-specific TCL; Subject 2 TCL, Lol p 1 series (Table 3), RGP and Lol p 1 maximal response) | Proliferative response, stimulation index (RGP-specific TCL; Subject 4 TCL, Lol p 1 series (Table 3), RGP and Lol p 1 maximal response) | Proliferative response, stimulation index (RGP-specific TCL; Subject 5 TCL, Lol p 1 series (Table 3), RGP and Lol p 1 maximal response) | Proliferative response, stimulation index (RGP-specific TCL; Subject 6 TCL, Lol p 1 series (Table 3), RGP and Lol p 1 maximal response) | Proliferative response, stimulation index (RGP-specific TCL; Subject 8 TCL, Lol p 5 series (Table 4), RGP and Lol p 5 maximal response) | Proliferative response, stimulation index (RGP-specific TCL; Subject 11 TCL, Lol p 5 series (Table 4), RGP and Lol p 5 maximal response) | Proliferative response, stimulation index (RGP-specific TCL; Subject 15 TCL, Lol p 1 series (Table 3), RGP and Lol p 1 maximal response) | Proliferative response, stimulation index (RGP-specific TCL; Subject 19 TCL, Lol p 1 series (Table 3), RGP and Lol p 1 maximal response) | Proliferative response, stimulation index (RGP-specific TCL; Subject 27 TCL, Lol p 5 series (Table 4), RGP and Lol p 5 maximal response, † affinity purified Lol p 5) | Proliferative response, stimulation index (RGP-specific TCL; Subject 38 TCL, Lol p 5 series (Table 4), RGP and Lol p 5 maximal response, * SDS-PAGE purified Lol p 5) |
| --- | --- | --- | --- | --- | --- | --- | --- | --- | --- | --- | --- | --- | --- | --- |
| B1 | 91% | 60% | excluded |  |  |  |  |  |  |  |  |  |  |  |
| B2 | 79% | 71% | excluded | 5.9 | 3.0 | 2.9 | 2.5 | 4.0 | 4.3 | 3.4 | 0.3 | 10.5 | 3.8† | 3.2* |
